The values that follow are results of earlier work, collected in paper PMC3418248 (2012).

One may read the Kd as a measure of binding affinity in units of concentration.

The target in the data set is FtsZ C-terminal 17 amino acids (Bacillus subtilis) (UniProt P17865). The conditions noted are these: cited from earlier work.

Chain of EzrA (O34894 whole entry): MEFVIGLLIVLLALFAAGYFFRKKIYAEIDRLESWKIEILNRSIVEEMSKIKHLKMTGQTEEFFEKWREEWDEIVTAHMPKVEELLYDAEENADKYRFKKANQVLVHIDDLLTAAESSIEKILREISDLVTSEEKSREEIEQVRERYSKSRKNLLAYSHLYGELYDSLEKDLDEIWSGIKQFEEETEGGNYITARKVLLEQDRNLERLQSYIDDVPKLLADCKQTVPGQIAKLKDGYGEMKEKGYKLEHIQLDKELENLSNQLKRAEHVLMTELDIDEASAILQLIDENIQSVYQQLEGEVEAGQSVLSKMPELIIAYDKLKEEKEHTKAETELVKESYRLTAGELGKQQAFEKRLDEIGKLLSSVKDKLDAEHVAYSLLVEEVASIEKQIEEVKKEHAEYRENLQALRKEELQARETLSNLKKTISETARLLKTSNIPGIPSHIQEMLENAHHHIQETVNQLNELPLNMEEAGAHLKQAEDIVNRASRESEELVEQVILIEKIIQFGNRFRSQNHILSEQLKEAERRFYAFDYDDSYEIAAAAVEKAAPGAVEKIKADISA

Take EzrA (from UniProt O34894): the dissociation constant (Kd) is 102 µM.
